Measured values reported in US20240150805A1, “Glycosylated Opioids” (River Stone Biotech ApS, priority 2021, published 2024).

B1: XP_023914549: subfamily 72 UGT, sequence homolog of Qs72S_1 (protein)
chain: MEQKPHIALLPSPGMGHLIPLVEFAKQFVLHHDFRITCIVPVLGSPSKAMKAVLQALPTTIDHVFLPPVKLEEEEIRGLKFEVQTILTLTRSLPPLREVLKSTRFSAFVVDPFGIDALDIAKELNISPYIFFPTNAFALSLIFHLPKLDKTVSCEYRDLPEPLKLPGCIPIHGRDLSEPVQDRTSELYKMFLRNAKRFRLAEGIIVNTFMELERSAIKALLDEEAKNLPLYPIGPIQSGSSNQVDKSESDCLRWLENQPHGSVLFVCFGSGGTLSYDQTNELALGLELSGQKFLWVVRTPNNESADAAYLSDQTLDNNPLAFLPKGFVERTEGQGLAVPSWAPQAQVLSHGSTGGFLTHCGWNSILESVMQGIPLIAWPLYAEQKMNAVLLAEDLKVALRPKTNKNGLIDREEIAKVVKGLMVGEEGKKVRNRMKDIKIAAVKALSADGSSTKALSELASQWKNHPGF
modifications: Quercus suber
B2: SEQ ID NO: 204: UGT fused N-terminally to a solubility tag (protein)
chain: MKAQYEDGKQYTTLEKPVAGAPQVLEFFSFFCPHCYQFEEVLHISDNVKKKLPEGVKMTKYHVNFMGGDLGKDLTQAWAVAMALGVEDKVTVPLFEGVQKTQTIRSASDIRDVFINAGIKGEEYDAAWNSFVVKSLVAQQEKAAADVQLRGVPAMFVNGKYQLNPQGMDTSNMDVFVQQYADTVKYLSEKKGGGGSEQKPHIALLPSPGMGHLIPLVEFAKQFVLHHDFHITCIIPVLGSPSKAMKAVLQALPTTIDHVFLPPVILEEEEIKGLKFEVQTILTLTRSLPPLREVLKTTRFSAFVVDPFGIDALDIAKELNISPYIFFPSNAFALSLIFHLPKLDETVSCEYRDLPEPLKLPGCIPIHGRDLIEPVQDRTSELYKMFLRNAKRFRLAEGIIVNTFMELEGSAIKALLDEEAKNLPLYPIGPIQSGSSNLQVDKSVSDCLRWLDNQPHGSVLFVCFGSGGTLSYDQTNELALGLELSGQKFLWVVRTPNNESADAAYLSDQILDNNPLDFLPKGFVERTEGQGLAVPSWAPQAQVLSHGSTGGFLTHCGWNSTLESIMQGIPLIAWPLYAEQKMNAPLLAEDLKVALRPKTNKSGLIDQEEIAKVVKGLMIGEEGKKVYNRMKDIKMAAEKALSADGSSTKALSELASQWKNHPGF
B3: SEQ ID NO: 212: UGT fused N-terminally to a solubility tag (protein)
chain: METHINLKVSDGSSEIFFKIKKTTPLRRLMEAFAKRQGKEMDSLRFLYDGIRIQADQTPEDLDMEDNDIIEAHREQIGGGGGGSEQKPHIALLPSPGMGHLIPLVEFAKQFVLHHDFHITCIIPVLGSPSKAMKAVLQALPTTIDHVFLPPVILEEEEIKGLKFEVQTILTLTRSLPPLREVLKTTRFSAFVVDPFGIDALDIAKELNISPYIFFPSNAFALSLIFHLPKLDETVSCEYRDLPEPLKLPGCIPIHGRDLIEPVQDRTSELYKMFLRNAKRFRLAEGIIVNTFMELEGSAIKALLDEEAKNLPLYPIGPIQSGSSNLQVDKSVSDCLRWLDNQPHGSVLFVCFGSGGTLSYDQTNELALGLELSGQKFLWVVRTPNNESADAAYLSDQILDNNPLDFLPKGFVERTEGQGLAVPSWAPQAQVLSHGSTGGFLTHCGWNSTLESIMQGIPLIAWPLYAEQKMNAPLLAEDLKVALRPKTNKSGLIDQEEIAKVVKGLMIGEEGKKVYNRMKDIKMAAEKALSADGSSTKALSELASQWKNHPGF
B4: SEQ ID NO: 214: UGT fused N-terminally to a solubility tag (protein)
chain: METHINLKVSDGSSEIFFKIKKTTPLRRLMEAFAKRQGKEMDSLRFLYDGIRIQADQTPEDLDMEDNDIIEAHREQIGGGGGGSGGGGSGGGGSEQKPHIALLPSPGMGHLIPLVEFAKQFVLHHDFHITCIIPVLGSPSKAMKAVLQALPTTIDHVFLPPVILEEEEIKGLKFEVQTILTLTRSLPPLREVLKTTRFSAFVVDPFGIDALDIAKELNISPYIFFPSNAFALSLIFHLPKLDETVSCEYRDLPEPLKLPGCIPIHGRDLIEPVQDRTSELYKMFLRNAKRFRLAEGIIVNTFMELEGSAIKALLDEEAKNLPLYPIGPIQSGSSNLQVDKSVSDCLRWLDNQPHGSVLFVCFGSGGTLSYDQTNELALGLELSGQKFLWVVRTPNNESADAAYLSDQILDNNPLDFLPKGFVERTEGQGLAVPSWAPQAQVLSHGSTGGFLTHCGWNSTLESIMQGIPLIAWPLYAEQKMNAPLLAEDLKVALRPKTNKSGLIDQEEIAKVVKGLMIGEEGKKVYNRMKDIKMAAEKALSADGSSTKALSELASQWKNHPGF
B5: SEQ ID NO: 170: additional UGT with 62% identity at the protein level to SEQ ID NO: 96 (protein)
chain: MEQTPHIAIMPTQGMGHLIPLVEFAKRLVLTHNFSATFLIPTDPGRLPAAQKSFLDSLPAGINYVLLPPVNFDDLPDDVGSETRISLAVVRSLPSLRDALKSLVSGFRVVALVVDLFGTDAFDVAAEFNVSPYIFYPSTAMALSLFLHLPKLDESVSCEYRDLPEPVQIPGCIPVHGKDLLDPVQDRKNGAYKWLLHQVKRYRLAEGIMVNSFKELEGGAIKALQEEEPGKPPVYPIGPLVQMDGADEKSECLRWLDDQPRGSVLFVSFGSGGTLSYDQLNELALGLEMSEQRFLWVVRSPNNKSANATYFSVNSQNDPFAFLPKGFLERTKGYGLVVPSWAPQVRVLSHGSTGGFLTHCGWNSTLESVVNGVPLIAWPFYAEQKMNAVMLTEDLKVALRLRIGENGIIGRAEIAKVVKGLMEGEEGKQIRSRMIDLKDAAARALGEDGDSTKSLAELAQKWKNKIIS
B6: PWA70520: subfamily 71 UGT (protein, listed as Artemisia annua)
chain: MTTLELVFIPSPGAGHLPPTVELAKLLLDHDQRLSVTIIIMNLPFEAEQVTETPISTPRLNFIYVANEDSSKDLISPHTFMSAFLEHQKPKLKNIIRDITESDSVRLVGFIVDMFCIAMIDVANEFGVPTYVYFTSSASALGLMFHLQAKCDDEEYDVTDLKDSDLMLSIPSYVKPIPAKLLPSVLFDKQGGSKMFIDLAKKFRESEGIIINSFQELESHGLEFLIKGDPNIPPVFPVGPILNLKNTKNDGKTTDIMAWLDNQPKSSVVFLCFGSMGSFGEKQVKEIAVALERSEHRFLWSLRRPPSKEVMRLPEEYENFKEVLPEGFLECTSNLGKVIGWAPQTSVLSHPSLGGFVSHCGWNSTLESIWFGVPVAAWPLYAEQQINAFQLVMELGIAAEIKIDYKSNIGPGGGSNEMLVKADEIESGIRRLMNDDDMRRNVKEMKHMSRLTVTEGGSSYASIKRFIELVITNT

Assays:
[1] = In vitro glucosylation of oripavine and nororipavine by purified UGTs; type: biochemical; conditions: purified UGT, 500 μM substrate, overnight at 30° C., HPLC
Method: Glucosylation samples of a 20 μL total reaction volume for each UGT to be tested were prepared in 96-well microtiter plates as follows:
The microtiter plate was sealed with an adhesive seal, spun shortly and the glucosylation samples were incubated overnight at 30° C. After incubation, glucosylation reaction was terminated by adding 3 volumes (60 μL) of ice-cold 100% methanol the reaction volume and mixing well, followed by centrifugation of the plate at 3000 rpm for 5 min at 4° C. and analysis by HPLC.
The 72UGTs of Table 5 were tested in vitro to using the test setup of example 3 identify those having having specificity toward nororipavine.

[2] = Effect of N-terminal tags on UGT activity in yeast bioconversion of oripavine; type: cell-based, Saccharomyces cerevisiae; conditions: UGT with solubility tag
[3] = Test of additional UGT (SEQ ID NO: 170) in yeast fed with oripavine; type: cell-based, Saccharomyces cerevisiae; conditions: Delft pH 5.5 media, 2 mM oripavine, 3 days, 30 degrees Celsius
Method: An additional UGT (SEQ ID NO: 170) with 62% identity at the protein level to SEQ ID NO: 96 was also tested in a similar manner as above. Briefly, cells were grown overnight in SC-HLU and used to inoculate Delft pH 5.5 media containing 2 mM oripavine. After growth with shaking at 30 degrees Celsius for 3 days, total extracts were obtained by mixing the cultures with an equal volume of 0.2% formic acid and heating at 80 degrees Celsius for 10 minutes. After centrifugation, the supernatant was diluted in 0.1% formic acid for quantification by HPLC as described in the Materials and Methods. UGT SEQ ID NO: 170 was active for glucosylation on both oripavine and nororipavine however it produced 41% of the noropavine-glu relative to SEQ ID NO: 96 and 35% of oripavine-glu relative to SEQ ID NO: 96.

| Molecule | preference for nororipavine glucosylation compared to oripavine glucosylation [1] | amounts of glucosylated nororipavine compared to the untagged UGT alone [2] | other results |
| --- | --- | --- | --- |
| B1 | particularly strong preference for Nororipavine glucosylation |  |  |
| B2 |  | higher |  |
| B3 |  | higher |  |
| B4 |  | higher |  |
| B5 |  |  | noropavine-glu produced relative to SEQ ID NO: 96 [3]: 41%; oripavine-glu produced relative to SEQ ID NO: 96 [3]: 35% |
| B6 | preference for glucosylation of nororipavine |  |  |
